Drawing on patent US20170137533A1 (published 2017), this text covers Kd for one molecule.

Holding throughout (test): ForteBio
Assay [1] deals with SC16.39.
The target of assay [2] is SC16.46.
The target in assay [3] is SC16.51.
Chain of SC16.51 (Q9NYJ7 27-492): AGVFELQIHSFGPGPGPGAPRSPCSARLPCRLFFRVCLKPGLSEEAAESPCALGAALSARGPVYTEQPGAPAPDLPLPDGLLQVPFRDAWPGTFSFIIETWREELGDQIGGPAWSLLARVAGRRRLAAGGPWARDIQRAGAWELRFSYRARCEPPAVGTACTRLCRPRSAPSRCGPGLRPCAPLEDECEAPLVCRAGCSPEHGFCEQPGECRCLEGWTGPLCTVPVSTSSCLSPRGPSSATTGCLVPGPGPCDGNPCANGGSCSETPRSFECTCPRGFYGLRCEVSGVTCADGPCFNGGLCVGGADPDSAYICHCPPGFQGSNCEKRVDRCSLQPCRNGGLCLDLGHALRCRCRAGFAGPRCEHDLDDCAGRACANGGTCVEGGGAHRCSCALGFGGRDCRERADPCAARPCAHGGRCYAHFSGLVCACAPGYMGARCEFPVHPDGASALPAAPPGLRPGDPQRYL

Chain of SC16.46 (Q9NYJ7 27-492): as above
Chain of SC16.39 (Q9NYJ7 27-492): as above

B1: DLL3 (ligand)
chain: not shown
For B1, the figures for the dissociation constant (Kd) in assay [1], in assay [2] and in assay [3] were 1 nM, 0.5 nM and 2 nM, respectively.
